Assay results: patent publication US20040050316A1 (published 2004)

Target: the molecule itself
Assay: X-ray crystal structure (self-association of subunits)
Text: Native data, to 2.2 Å resolution, were collected at station 9.6 of the S.R.S. Daresbury, from crystals frozen at liquid nitrogen temperatures in a cryo-protecting solution comprising of mother liquor plus 20% glycerol. The structure was solved by multiple isomorphous replacement with anomalous scattering using three heavy atom derivatives. Table 1 details data collection and heavy atom statistics; the HKL package (Otwinowski, Z & Minor, W (1997) Methods Enzymol 276, 307-326), and the CCP4 (Acta Crystallogr D 50 (1994) 760-763) software suite were used for data processing and analysis. Heavy atom positions were derived from difference Patterson and difference Fourier calculations. The SHARP program (Fortelle E. d. -L. & Bricogne, G. (1997) Methods Enzymol 276, 472-494) was used to refine the heavy atom parameters and obtain initial phases, further heavy atom sites were identified from the residual map analysis available in SHARP. […]
The initial model of AMPDA was traced using the QUANTA package (Molecular Simulations Inc) and refined using all data to 2.2 Å with X-PLOR (Briinger, A. T. (1993) X-PLOR Version 3.1 A system for X-ray crystallography and NMR, Yale University Press, New Haven, Conn.). […] The current model has a Rcryst=21.2% and a Rfree=25.4%, calculated on 5% of the data set (Branger, A. T. (1992) Nature 355, 472-475).

B1: rabbit AMP deaminase (AMPDA) catalytic domain, starting at Leu96 (enzyme)
chain: LSHIDEYISLSPTYQTVPDFQRVQITGDYASGVTVEDFEIVCKGLYRALCIREKYMLKSFQRFPKTPSKYLRSIEGTAWKANESSYPVFTPALKKGEDPFRTDNLPENLGYHLKMKDGVVYIYANEAAAGKDEPKPLLYPNMEEFLDDMNFLLALIAQGPVKTYTHRRLKFLSSKFQVHQMLNEMDELKELKNNPHRDFYNCRKVDTHIHAAACMNQKHLLRFIKKSYQVDADRVVYSTKEKNLTLKQLFDKLKLHPYDLTVDSLDVHAGRQTFQRFDKFNDKYNPVGASELRDLYLKTDNYINGEYFATIIKEVGADLVDAKYQHAEPRLSIYGRSPDEWSKLSSWFVRNRIYSSNMTWMIQVPRIYDVFRSKNFLPHFGKMLENVFMPVFEATINPQAHPELSVFLKHITGFDSVDDESKHSGHMFSSKSPKPQEWTLEKNPSYTYYAYYMYANIMVLNSLRKERGMNTFLFRPHCGEVGALTHLMTAFMTADNISHGLNLKKSPVLQYLFFLAQIPIAMSPLSNNSLFLEYAKNPFLDFLQKGLMISLSTDDPMQFHFTKEPLMEEYAIAAQVFKLSTCDMCEVARNSVLQCGISHEEKAKFLGNNYLEEGPIGNDIRKTNVAQIRMAYRYETWCYELNLIAEGLKSTE
notes: Purified from rabbit skeletal muscle; also called rabbit AMPDA; truncated enzyme
binding result: binds
